The text below walks through data of US11814435B2, “Therapeutic antibodies and their uses” (PFIZER INC., priority 2015, dated 2023).

Positions count from the first letter of the chain named.

One test concerns the target CD3 (Homo sapiens, UniProt P07766). The test can be described thus: Biacore kinetics of anti-CD3 hIgG2dA bispecifics at 37° C. It counts as binding. On the technique in general: In SPR one partner is held on a chip, and binding of the other changes the refractive index at the surface.
For another test, the target named is T1, hBCMA (human BCMA) (Homo sapiens, UniProt Q02223).
T1 sequence (Q02223 1-184): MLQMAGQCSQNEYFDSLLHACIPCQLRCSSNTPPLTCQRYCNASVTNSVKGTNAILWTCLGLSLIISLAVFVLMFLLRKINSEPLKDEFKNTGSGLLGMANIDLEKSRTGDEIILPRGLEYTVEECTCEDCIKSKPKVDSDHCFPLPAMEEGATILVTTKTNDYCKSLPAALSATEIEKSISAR
The experiment in a line: Kinetics and affinity of hBCMA/human IgG interactions by SPR (Bio-Rad Proteon XPR36). It counts as binding. The settings on record: human BCMA, 37° C. Summed up:
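Kinetic constants and affinity come from fitting double-referenced sensorgrams to a 1:1 Langmuir model with mass transport. Antigen flowed over amine-immobilized IgGs in five rising injections up to 50 nM, two minutes apiece, then a 2 h dissociation; runs at 37° C. or 25° C.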

The next test relates to Cyno BCMA. The test can be described thus: Kinetics and affinity of cyno BCMA/human IgG interactions by SPR (Bio-Rad Proteon XPR36). It counts as binding, cynomolgus. To be noted: 37° C.

Sequence of CD3 (P07766 23-126 limits assumed): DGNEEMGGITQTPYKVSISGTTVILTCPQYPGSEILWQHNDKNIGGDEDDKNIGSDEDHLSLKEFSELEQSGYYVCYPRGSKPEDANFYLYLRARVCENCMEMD
Sequence of CD3 (P04234 22-105 partner limits assumed): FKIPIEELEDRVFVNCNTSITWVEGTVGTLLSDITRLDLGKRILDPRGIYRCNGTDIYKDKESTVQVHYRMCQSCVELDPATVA

B1: h2B4-1d_Ep: anti-EpCam/CD3 bispecific, human IgG2dA, anti-CD3 arm h2B4-1d (h2B4) (antibody, V domains shown)
VH: EVQLVESGGGLVQPGGSLRLSCAASGFTFSDYYMTWVRQAPGKGLEWVAFIRNRARGYTSDHNASVKGRFTISRDNAKNSLYLQMNSLRAEDTAVYYCARDRPSYYVLDYWGQGTTVTVSS
VL: DIVMTQSPDSLAVSLGERATINCTSSQSLFNVRSRKNYLAWYQQKPGQPPKLLISWASTRESGVPDRFSGSGSGTDFTLTISSLQAEDVAVYYCKQSYDLFTFGSGTKLEIK
modifications: left off: another chain or arm of the molecule; a dimerising Fc or GST; small tags and cut ends
A word on the Kd: it is the concentration at which binding is half-saturated. The low end stands for a tighter complex, the high end for a looser complex. B1: in the test with CD3, the dissociation constant Kd turned out to be 40.4 nM, the ka is 586000 M⁻¹ s⁻¹ and the kd stood at 0.0237 s⁻¹.

B2: h2B4-hnpsTK_Ep: anti-EpCam/CD3 bispecific, human IgG2dA, anti-CD3 arm h2B4-hnpsTK (h2B4-VH-hnps VL_TK) (antibody, V domains shown)
VH: B1 VH with A64P
VL: B1 VL with T24K
modifications: left off: another chain or arm of the molecule; a dimerising Fc or GST; small tags and cut ends
In the test with CD3, B2 returned a Kd of 31.2 nM, a ka of 754000 M⁻¹ s⁻¹ and a kd of 0.0235 s⁻¹.

B3: h2B4-TK_Ep: anti-EpCam/CD3 bispecific, human IgG2dA, anti-CD3 arm h2B4-TK (h2B4-VH-wt VL_TK) (antibody, V domains shown)
VH: B1 VH
VL: B1 VL with T24K
modifications: left off: another chain or arm of the molecule; a dimerising Fc or GST; small tags and cut ends
In the test with CD3, B3 gave a Kd of 31 nM, a ka of 687000 M⁻¹ s⁻¹ and a kd of 0.0213 s⁻¹.

B4: COMBO_Rd4_0.6 nM_C14: anti-BCMA antibody (antibody, V domains shown)
VH: EVQLLESGGGLVQPGGSLRLSCAASGFTFSSYPMSWVRQAPGKGLEWVSAIGGSGGSLPYADSVKGRFTISRDNSKNTLYLQMNSLRAEDTAVYYCARYWPMDIWGQGTLVTVSS
VL: EIVLTQSPGTLSLSPGERATLSCRASQSVSALYLAWYQQKPGQAPRLLMYDASIRATGIPDRFSGSGSGTDFTLTISRLEPEDFAVYYCQQYYGWPLTFGQGTKVEIK
In the case of B4, in the test with hBCMA (human BCMA), the “ka Human” value turned out to be 8.66e+06 M⁻¹ s⁻¹ and the “kd Human” value was determined as 0.000328 s⁻¹. Moreover, in the test on Cyno BCMA, the “ka Cyno” value is 3.48e+06 M⁻¹ s⁻¹ and the “kd Cyno” value stood at 0.000645 s⁻¹.

B5: COMBO_Rd4_6 nM_C02: anti-BCMA antibody (antibody, V domains shown)
VH: B4 VH with P33A, S35N, G52S, G53D, S57F, L58V, P59Y, I104S
VL: B4 VL with A31S, L32S, Y93E, G94F
Regarding B5, in the test with hBCMA (human BCMA), the “ka Human” value stood at 1.05e+06 M⁻¹ s⁻¹ and the “kd Human” value was found to be 0.000443 s⁻¹. Moreover, in the test on Cyno BCMA, the “ka Cyno” value is 795000 M⁻¹ s⁻¹ and the “kd Cyno” value turned out to be 0.00136 s⁻¹.

B6: COMBO_Rd4_6 nM_C07: anti-BCMA antibody (antibody, V domains shown)
VH: B4 VH with D103A, I104D
VL: B4 VL with S28P, V29I, A31S, L32S, Y93Q
For the molecule B6, in the test with hBCMA (human BCMA), the “ka Human” value amounted to 1.05e+07 M⁻¹ s⁻¹ and the “kd Human” value came to 0.000371 s⁻¹. Moreover, in the test on Cyno BCMA, the “ka Cyno” value is 3.94e+06 M⁻¹ s⁻¹ and the “kd Cyno” value is 0.000934 s⁻¹.

B7: A02_Rd4_0.6 nM_C06: anti-BCMA antibody (antibody, V domains shown)
VH: B4 VH with P33A, S35N, G52S, G53D, L58A, P59W, D103S, I104L
VL: B4 VL with A31V, Y93Q, G94R
On to B7, for which, in the test with hBCMA (human BCMA), binding was put at a Kd of 0.021 nM, the “ka Human” value is 3.49e+06 M⁻¹ s⁻¹ and the “kd Human” value came to 7.37e-05 s⁻¹. For the same molecule, on Cyno BCMA, the Kd was determined as 0.058 nM, the “ka Cyno” value was found to be 1.81e+06 M⁻¹ s⁻¹ and the “kd Cyno” value was found to be 0.000105 s⁻¹.

B8: P5A2_VHVL: anti-BCMA antibody (antibody, V domains shown)
VH: B4 VH with P33A, S35N, G52S, G53D, L58T, P59Y
VL: B4 VL with A31S, L32S, Y93G, G94S
For B8, in the test with hBCMA (human BCMA), the “ka Human” value came to 6.96e+06 M⁻¹ s⁻¹ and the “kd Human” value was found to be 0.0387 s⁻¹. Also, in the test with Cyno BCMA, the “ka Cyno” value amounted to 1.61e+06 M⁻¹ s⁻¹ and the “kd Cyno” value is 0.0164 s⁻¹.

B9: A02_Rd4_0.6 nM_C09: anti-BCMA antibody (antibody, V domains shown)
VH: B4 VH with P33A, S35N, G52S, G53D, L58M, P59W, D103S, I104L
VL: B4 VL with A31S, L32S, Y93Q, G94S
For B9, in the test with hBCMA (human BCMA), the “ka Human” value turned out to be 5.5e+06 M⁻¹ s⁻¹ and the “kd Human” value amounted to 9.75e-05 s⁻¹. In the test on Cyno BCMA, the “ka Cyno” value is 2.13e+06 M⁻¹ s⁻¹ and the “kd Cyno” value is 0.000174 s⁻¹.

B10: COMBO_Rd4_0.6 nM_C17: anti-BCMA antibody (antibody, V domains shown)
VH: B4 VH
VL: B4 VL with S28G, V29I, A31S, L32T, Y93A, G94Y
Regarding B10, in the test with hBCMA (human BCMA), the “ka Human” value came to 8.68e+06 M⁻¹ s⁻¹ and the “kd Human” value stood at 0.000801 s⁻¹. Moreover, in the test with Cyno BCMA, the “ka Cyno” value came to 3.06e+06 M⁻¹ s⁻¹ and the “kd Cyno” value came out at 0.00101 s⁻¹.

B11: COMBO_Rd4_0.6 nM_C11: anti-BCMA antibody (antibody, V domains shown)
VH: B4 VH with I51A, G52L, L58T, P59Y, D103S, I104L
VL: B4 VL with A31V, L32R, Y93G, G94S, L97I
With B11, in the test with hBCMA (human BCMA), the “ka Human” value was 5.11e+06 M⁻¹ s⁻¹ and the “kd Human” value is 0.00106 s⁻¹. In the test with Cyno BCMA, the “ka Cyno” value worked out at 2.2e+06 M⁻¹ s⁻¹ and the “kd Cyno” value was 0.00423 s⁻¹.

B12: COMBO_Rd4_0.6 nM_C05: anti-BCMA antibody (antibody, V domains shown)
VH: B4 VH with P33A, S35N, L58T, P59Y, D103S, I104L
VL: B4 VL with A31S, L32T, Y93M, G94S
On to B12, for which, in the test with hBCMA (human BCMA), the “ka Human” value stood at 4.32e+06 M⁻¹ s⁻¹ and the “kd Human” value turned out to be 0.000497 s⁻¹. Besides, in the test with Cyno BCMA, the “ka Cyno” value stood at 1.94e+06 M⁻¹ s⁻¹ and the “kd Cyno” value came out at 0.00172 s⁻¹.

B13: COMBO_Rd4_6 nM_C22: anti-BCMA antibody (antibody, V domains shown)
VH: B4 VH with P33A, S35N, I51C, G52L, G53D, L58T, P59Y, I104S
VL: B4 VL with A31S, L32S, Y93Q
As to B13, in the test with hBCMA (human BCMA), the “ka Human” value amounted to 3.03e+06 M⁻¹ s⁻¹ and the “kd Human” value is 0.000775 s⁻¹. For the same molecule, in the test with Cyno BCMA, the “ka Cyno” value came to 1.7e+06 M⁻¹ s⁻¹ and the “kd Cyno” value worked out at 0.00165 s⁻¹.

B14: A02_Rd4_6 nM_C03: anti-BCMA antibody (antibody, V domains shown)
VH: B4 VH with P33A, S35N, G52S, G53D, L58T, P59Y
VL: B4 VL with A31N, Y93Q
For the molecule B14, in the test with hBCMA (human BCMA), the “ka Human” value is 1.69e+06 M⁻¹ s⁻¹ and the “kd Human” value was 0.000126 s⁻¹. Besides, in the test on Cyno BCMA, the “ka Cyno” value was 1.17e+06 M⁻¹ s⁻¹ and the “kd Cyno” value was found to be 0.000185 s⁻¹.
